In the supplement of paper PMC9170038:

Each sequence was assayed on K4 kissing-loop RNA reporter (assay: apparent KD of K4 kissing-loop reporter; higher = weaker reporter binding). Conditions: Eterna round: R107; input ligand: theophylline 20 uM.
Method: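 RNA-MaP round R107: designed RNA switches with theophylline, tryptophan, arginine or FMN aptamers are transcribed on-chip within common flanks. They are titrated with a labelled K4 kissing-loop RNA reporter in RNA-MaP buffer (100 mM Tris pH 7.5, 80 mM KCl, 4 mM MgCl2), without ligand or with the indicated ligand. Median apparent KD per design.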
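Also: bound reporter read as fluorescence of individual clusters on recovered sequencing chips by microscopy, with normalized cluster intensities fitted with a binding model.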

Sequence | apparent KD of K4 kissing-loop reporter [nM]
UUACCAAGUGAUGUUUGGAAAUAUCCUAGGCAGGAUAUGCGGAAACGCAGAAGGGCCACCUUCUAGUGAAGGAAACUUCGCUAUU [Ex FMN A 3] | 246
GCUAUGGUAGGAAGGAGCGCUUACUCAUUAAUAAGAGUGAUGUUCGAUAAUGAGUAUUUAUAGCAGGUAGGUCGCCUACUAUAGC [Arginine B K4 3] | 247
AGGAUCCGUCGACAAAAGUCGACAUAAGCCAAGGAUAUGACGAAAGUCAGAAGGUGGUCAUAAGACCAGUGAUGUUGGUGGAUCC [FmnA 13 #SwitchBubble #K4Late] | 309
GCGCUUAAAUAAGGAUAUUACAGACUCAUCUACGAGUGAUGUUCGGUGCGCUGUGCACAGAGCCUGUAAGAAGGUAUAGCAUUGC [theeternabot_sameState_KL_FMN_B_41] | 811
UUUAGGAGUGGUGUUGAUUAGGGAGCGGAAGGAGCGCCGAGGAAGGCAGGUAGGUCGCCGGAUUAUAGUGAUGUUAUGAAGAGGG [ExArg.M] | 912
UGUGAGCUGUCGACAAAAGUCGACUAAAACUAGGAUAUGACGAAAGUCAGAAGGAGUCAAUAAUGGAGUGAUGUUCCUGCUCACU [FmnA 9 U31+A55] | 386
GGGCGCGGCGCGGCCGCCACUGCGCCUGGGUGCUCGCUGAGUGAUGUUCGUCGGCGGUUGGGUGGUAGGACCGGGUGCUGGCCGG [BDazzled - #13 SS Tryptophan B] | 522
UUUUAAAUAUCUGAUACCAGAGCGAAUAUAUGUAGUGAUGUUAUAUACAAAAUAAAUAAGCUCCCUUGGCAGCAGUAUUAAUUUU [Astros-ExyTheB#?#ED14.66] | 961
CCCUAUAUAUGCAGUGAUGUUGCAACUGAUACCAGUAUCGAAAGAUACCCUUGGCAGCGGAAAACCGCUACGUAAUUUAAUAGGG [Ex Theophylline A K4 21] | 461
ACCGCAUUGGGAUGAUCCCAAUGCGCUGGUCGAGGACCGGUACGGCCGCCACUCGUCCAGUGAUGUUGGAAUUGGGCUACUGAAG [KL-XTryp-A11] | 195
GGCAUGGUGACGCGGCGGCCAUGCACUUGGGAGGAUAUGUUUCGUGACAGAAGGCCCAGUGAUGUUGGGUCUGUUCAAAAGGACU [Riteveat] | 174

Same assay, conditions: Eterna round: R107; input ligand: tryptophan 2.4 mM

Sequence | apparent KD of K4 kissing-loop reporter [nM]
UAAGAAUAAGAUGCAGUGAUGUUGCAUCUACGAGGACCGGUACGGCCGCCACUCGAGGUCCUCGAACUGCAUCAGAGGACAAUAA [(H,1)-(H,2)-(Trp1)-(Trp2)-(T)'-(H)'-(T)''] | 300
AAAAUAAAUAGCAGUCAUGGAGUGAUGUUCCGAGGACCGGUACGGCCGCCACUCGACCAUCAUAAGAUGGAUGGCGAAGACUGCA [#SwitchBubble 24 #K4Early] | 864
GGACACUAGGAAACUAGUGUCUCAACUGAAGGAGCGUGAAUAGUCACAGGUAGGUCGCAGUUUGUUAGUGAUGUUGACAUGAGUU [#16 K4 Arginine A Same State] | 277
UGAUACCAGACGGCCGCCACUGCACCAGUCAAUGACUGAGUGCGGUAGUGCUCAGUGAUGUUGAGUAGGACCGGGUCUGGUAUCU [Mod of Eli's TrypBX 8 v3] | 130
UUUAUUAAGACGGCCGCCACUGAAUCAUAGUGAUGUUAUGAUAUAAUUUUAGUGAUUUUGAUUAGCAGGACCGGGUCAAUUAUUA [#26 K4 Tryptophan B Exclusion] | 140
GGUGACGGCCAGGAGUGAUGUAUAGAAUAGCGAGGACCGGUACGGCCGCCACUCGUGAAGAAAAGGGAGUGAUGUUCCGUAAUGG [Kazoo B] | 302
CGCGCGCGCUGAGAGGCGCGCGCGAAUGAUACCAGUAUAUAAGAAUACCCUUGGCAGCAUAAGAAAGAUAUAGUGAUGUUGUAUA [SSTheophA.D] | 29
AAGCAGUCACUCGAACCCAUCGAAGAUGGGCGAGGACCGGUACGGCCGCCACUCGGAGUGAUGUUCCGAAGACUGCAAAAUAAAA | 555
GGGCAUCAGGCUGAUACCAGUGAUAAAGGAUAAGAGACAGGGAGUGAUGUUCCCUUUACCCACCCUUGGCAGCAGUUUAAGUUUG [Exclusion Theophylline B GF 16] | 87.1
GAGAACUCUUACGAUACCAGCCGGAGUGAUGUUCCGUGCUUGGACGUAGUAACCCGCACCGGCCCUUGGCAGCGUGGAUCCUAUG [Biorar] | 74.4
UCCUGCAAUCUGCCACGAAAGUGGAUUGAUACCAGAGUCGAAAGACUCCCUUGGCAGCGAGUGAUGUUCGAAGCAGGUAAAUAAA | 91.7
UUAGAUCAAAGAUCAGUCUUAUUGAGAGAACGAGGACCGGUACGGCCGCCACUCGAGUGAUGUUCGAGAACUCUCUUGACAAAUU [AK1 EXC Tryptophan A] | 258
UGAUUUAACUGAAGGAGCGGCAAUUGAUAAGUAAAUAUAGUGAUGUUAUAUAAGAUAGAGAGCCAGGUAGGUCGCAGAGGUAUGA [ExArgB.L] | 139
UUUUUCCCGCAGGAUACCAGCAACCAAACGUCAUGCGAAGUGAUGUUUCGCUUACGGUAGUGCCCUUGGCAGCCUUCGGUAGGGU [thingy] | 161
AGAACUGUCUGAGAUACCAGCCAUAGGAGUGAUGUUCCUAGCUCCACAAAGUGGAGCCAUAGCCCUUGGCAGCUCAGACAGUUCA [Omei KL Theo B SS A v7] | 823
UGUCUUUUUUUGAUGUUUUUUGUAUAAUGGCAGGAUAUCGUAGAUGCGAGAAGGGCUUUUAUGCGUUAUGAGUGAUGUUUGUAGG [vjjbvmullin] | 225
GCAAGGCUACAAGGAUAUGCGCGAACCUACCGCCAAGCGGCUACCGGUGAGUCAGUGAUGUUGGCUGCAGAAGGUGUGAUUGAGC [theeternabot_sameState_KL_FMN_B_45] | 334
UCGCAUUAACCGGAUACCAGCUUAGUGGGAUCUUCAAUCCGACAGAAAGUGAUGUUUUCUAGCCCUUGGCAGCCGAGAUUAUCAC [theeternabot_sameState_KL_Theo_B_50] | 348
GGGAACUCUUACGAUACCAGCCGGAGUGAUGUUCCGCGCUUGGACGUAGUAACCCGCACCGGCCCUUGGCAGCGUGGAUCUUAUA [Esbedi] | 83.1
GGCGCCAGGAAAGGAUAUCUAAGUCUAUUAUCAAGAAUUGCCUCAAGAUCGGAGUGAUGUUCCCAGAGAGAAGGUUCUAUCCGCU [theeternabot_exclusion_KL_FMN_B_38] | 164
UAAUGUGGCACAGGAUAUACUGAUUGGAGUGAUGUUCCAAACAUGAACAAGAGACUUUUACAAGAAGUAGAAGGGUGUUAGAUAU [Exclusion FMN B GF 19] | 223
GGAUAGGACAGAGGAUAUGGUAGUGAUGUUACCAAACUGGUUAUCAAUGUUAGAAAAUUGACAAAACCAGAAGGCUGUCCUAUCG [KL-XFMN-B15] | 66.6

Sequence | apparent KD of K4 kissing-loop reporter [nM]
AUUUAAUGUAUAGAUUAUAUACAUUAUUCAGAGGAUAUGCAUUGAAGCAGAAGGCUGGGUGUAGUGAUGUUGCAGUUUUAAUUUA [whbob_SS_FMNA__2th173] | 122
GGCACUACAGCGGCCGCCACUGUUUAGUCCAUCGCUUGCGAGUGAUGUUCGUAGGUACUGCAGCUCAGGACCGGGCUGUCCUUAC [theeternabot_sameState_KL_Trp_B_34] | 388
GCCUACGAUGCAGGAUAUAGCUCGCGAGUGAUGUUCGCAGCUGUAUGGUAGUAAGCUUCCACGUGUCUAGAAGGGCAUCGUAGGC [#01 K4 FMN B Exclusion] | 88.7
AAAUAAAGCAGUCACCCAGUGAUGUUGGAAGGAGCGUGCGAAAGCACAGGUAGGUCGCCGAUAAGGACAAAGUCCAGUGGCUGCA [#SwitchBubble 28 #K4Early] | 283
AAAUUUAUAUUAGAUACCAGUUUAAUGGAUGUAAAUUAUGACAUGAGUGAUGUUCAUGUAAGCCCUUGGCAGCUGGUAUGGGUUU [KL-XTheo-B21] | 115
AUGCGCGUGCGAUGGAAAUCGCACGCGCAUCGAGGACCGGUACGGCCGCCACUCGCUCGCGCCGAGUGAUGUUCGGCCGGCGAAC [#2 SameState - Tryptophan_A Attempt #3 (HarryS)] | 599
AUGACUCAAUAGUGAGUGAUGUUCACUGGACGAGGACCGGUACGGCCGCCACUCGAGAGUGGUGGACACUGUGUCACUGAGUCAU [Tryp A Ex t1] | 496
AAACGUUGGUGCGAUACCAGCUGGUCGGAAACGACCUUGCUGGAGUGAUGUUCCAAGUAAAGCCCUUGGCAGCGCACCGACGAAA [MAT - Same State Theophlline B - Mod of Eli - D23] | 93.9
AUACAGCGAAGCGCUAGUGAUGUUAGCGAAGGAGCGACUCAGGAGUCAGGUAGGUCGCGCUAAACAGGUUACGAGAGUAACCAGU [Arg A Ex t1] | 113
CGGGAUGUUAAAGGAUAUAGCAGGUGAUACAAGAAAGUGAGUGAUGUUUAUGUAGAUGAUGAUAUGUUAGAAGGUUAACAAAACG [abcdefghijkl] | 581
UUACCAAGUGAUGUUUGGAAAUAUCCUAGGCAGGAUAUGCGGAAACGCAGAAGGGCCACCUUCUAGUGAAGGAAACUUCGCUAUU [Ex FMN A 3] | 263
GCUAUGGUAGGAAGGAGCGCUUACUCAUUAAUAAGAGUGAUGUUCGAUAAUGAGUAUUUAUAGCAGGUAGGUCGCCUACUAUAGC [Arginine B K4 3] | 237
AGGAUCCGUCGACAAAAGUCGACAUAAGCCAAGGAUAUGACGAAAGUCAGAAGGUGGUCAUAAGACCAGUGAUGUUGGUGGAUCC [FmnA 13 #SwitchBubble #K4Late] | 457
GCGCUUAAAUAAGGAUAUUACAGACUCAUCUACGAGUGAUGUUCGGUGCGCUGUGCACAGAGCCUGUAAGAAGGUAUAGCAUUGC [theeternabot_sameState_KL_FMN_B_41] | 861
UUUAGGAGUGGUGUUGAUUAGGGAGCGGAAGGAGCGCCGAGGAAGGCAGGUAGGUCGCCGGAUUAUAGUGAUGUUAUGAAGAGGG [ExArg.M] | 654
UGUGAGCUGUCGACAAAAGUCGACUAAAACUAGGAUAUGACGAAAGUCAGAAGGAGUCAAUAAUGGAGUGAUGUUCCUGCUCACU [FmnA 9 U31+A55] | 331
GGGCGCGGCGCGGCCGCCACUGCGCCUGGGUGCUCGCUGAGUGAUGUUCGUCGGCGGUUGGGUGGUAGGACCGGGUGCUGGCCGG [BDazzled - #13 SS Tryptophan B] | 527
UUUUAAAUAUCUGAUACCAGAGCGAAUAUAUGUAGUGAUGUUAUAUACAAAAUAAAUAAGCUCCCUUGGCAGCAGUAUUAAUUUU [Astros-ExyTheB#?#ED14.66] | 968
CCCUAUAUAUGCAGUGAUGUUGCAACUGAUACCAGUAUCGAAAGAUACCCUUGGCAGCGGAAAACCGCUACGUAAUUUAAUAGGG [Ex Theophylline A K4 21] | 265
ACCGCAUUGGGAUGAUCCCAAUGCGCUGGUCGAGGACCGGUACGGCCGCCACUCGUCCAGUGAUGUUGGAAUUGGGCUACUGAAG [KL-XTryp-A11] | 61.1
GGCAUGGUGACGCGGCGGCCAUGCACUUGGGAGGAUAUGUUUCGUGACAGAAGGCCCAGUGAUGUUGGGUCUGUUCAAAAGGACU [Riteveat] | 141
